Where two headings read alike, the source gives them in different places.
Tests used:
[1] = biological target: T1, human PD-1 on PD-1-expressing Jurkat effector cells (human, UniProt Q15116 25-288); assay: cell-based or functional assay
[2] = biological target: T2, recombinant human PD-1 His-tag protein (R&D Systems) (human, UniProt Q15116 25-167); assay: SPR, Biacore T200, as in Example 8 (antibody on Protein G chip, PD-1 His-tag injected)
T2 construct: Bought reagent; Used for the ELISA (coated) and for SPR (analyte); also called PD-1 protein; human PD-1 protein; not shown: His-tag
T2 sequence (Q15116 25-167 limits assumed): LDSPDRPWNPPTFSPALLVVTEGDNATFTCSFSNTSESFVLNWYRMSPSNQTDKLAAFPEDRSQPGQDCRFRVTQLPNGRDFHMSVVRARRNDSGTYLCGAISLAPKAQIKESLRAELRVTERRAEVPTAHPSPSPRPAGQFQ
Description: (§1) The Biacore T200 instrument, equipped with a Protein G sensor chip (GE Healthcare), was used to determine the binding kinetics between chimeric anti-PD-1 antibodies and PD-1 protein. Each purified chimeric anti-PD-1 antibody (1 μg/mL) was injected into the chip with a flow rate of 30 μL/min for 60 sec. […] The HBS-EP+buffer (GE Healthcare) was used as a buffer blank and diluent. The association constant (kₒₙ), dissociation constant (koff), and equilibrium constant (KD) values were calculated using Biacore T200 evaluation software (version 3.1) with a 1:1 Langmuir binding model curve fitting.

[3] = biological target: T1, human PD-1 on PD-1-expressing Jurkat …; assay: cell-based or functional assay; remark: listed apart in the source
[4] = biological target: T2, recombinant human PD-1 His-tag protein …; assay: ELISA, PD-1 His-tag coated on plate, anti-human IgG Fc-HRP detection
Description: (§2) ELISA technique was used to select hybridoma mini-pools producing anti-PD-1 antibodies using the following procedure. MaxiSorp ELISA plate was coated with PD-1 His-tag (R&D System) in PBS buffer (10 ng/100 μL/well) at 4° C. overnight. […] The culture supernatant of each mini-pool (100 μL) was added to the plate then incubated for 1 hour at 37° C. After washing, the plate was probed with goat anti-mouse IgG Fcγ-HRP (Jackson Immuno Research) diluted 1:8,000 in PBST (100 μL/well) and incubated for 1 hour at 37° C. […] 1 M H₂SO₄ (50 μL/well) was used to stop the reaction. […] Hybridoma mini-pools with absorbance values of more than 1.0 were selected for further screening.
The purified chimeric antibodies were 2-fold serial diluted for eleven rounds starting from […] until reaching the final concentration of 0.977 ng/mL. The PD-1 binding activity of purified chimeric antibodies was evaluated by ELISA following the procedure mentioned in Example 2, while the goat anti-human IgG Fcγ-HRP antibody (Jackson Immuno Research) diluted 1:10.000 in PBST was used to detect chimeric antibodies.

[5] = biological target: T2, recombinant human PD-1 His-tag protein …; assay: SPR, Biacore T200, antibody captured on Protein G chip, PD-1 His-tag injected, single-cycle kinetics, 1:1 model
Description: as §1

[6] = biological target: T1, human PD-1 on PD-1-expressing Jurkat …; assay: cell-based or functional assay; remark: listed apart in the source
[7] = biological target: T1, human PD-1 on PD-1-expressing Jurkat …; assay: cell-based or functional assay; remark: listed apart in the source
[8] = biological target: T1, human PD-1 on PD-1-expressing Jurkat …; assay: cell-based or functional assay; remark: listed apart in the source
[9] = biological target: T2, recombinant human PD-1 His-tag protein …; assay: ELISA, PD-1 His-tag coated on plate, anti-mouse IgG Fc-HRP detection
Description: as §2
The purified antibodies were 2-fold serial diluted for eleven rounds starting from 2 μg/mL until reaching the final concentration of 0.977 ng/mL. The PD-1 binding activity of purified antibodies was evaluated by ELISA following the procedure mentioned in Example 2. The half-maximal effective concentration (EC₅₀) was calculated using GraphPad Prism® software.

T1 sequence (Q15116 25-288): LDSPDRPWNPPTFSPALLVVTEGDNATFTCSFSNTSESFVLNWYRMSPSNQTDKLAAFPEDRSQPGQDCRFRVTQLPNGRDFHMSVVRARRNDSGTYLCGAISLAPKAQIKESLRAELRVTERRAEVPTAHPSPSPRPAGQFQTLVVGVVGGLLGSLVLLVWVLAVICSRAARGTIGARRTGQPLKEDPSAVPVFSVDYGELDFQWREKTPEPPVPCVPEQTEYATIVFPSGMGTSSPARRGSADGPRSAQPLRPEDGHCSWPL

Row | Binder | PD-1/PD-L1 blockade bioassay, IC50 [1] [µg/mL] | Kd [2] [nM] | koff [2] [s⁻¹] | kon [2] [M⁻¹ s⁻¹] | PD-1/PD-L1 blockade bioassay, IC50 [3] [µg/mL] | EC50 [4] [µg/mL] | Kd [5] [nM] | koff [5] [s⁻¹] | kon [5] [M⁻¹ s⁻¹] | IC50 (read off the curve) [6] [µg/mL] | IC50 (read off the curve) [7] [µg/mL] | PD-1/PD-L1 blockade bioassay, IC50 [8] [µg/mL] | EC50 [9] [µg/mL]
1 | zCUSB0125.9 (antibody, human IgG4, V domains shown, domain: human IgG4 constant region; Humanized; human IgG4 S228P and kappa constant regions; also called CUSB0125-BMVH.3 with CUSB0125-BMVL.3; not shown: human kappa constant region) VH: QVQLQESGPGLVKPSQTLSLTCTVSGYSITSDYAWNWIRQPPGKGLEWMGYIYYSGTTSYNPSLKSRISITRDTSKNQFSLKLSSVTAADTAVYYCARNYGSAFYYFDYWGQGTTLTVSS VL: DIQMTQSPSSVSASVGDRVTITCHASQGISSNIGWLQQKPGKAFKGLIYRGTNLEDGVPSRFSGSGSGTDYTLTISSLQPEDFATYYCVQYAQFPPTFGGGTKLEIK | 0.462 | 0.249 | 0.000746 | 2.99e+06 |  |  |  |  |  |  |  |  | 
2 | xCUSB0124 (antibody, human IgG4, V domains shown, Chimeric: mouse variable regions joined to human IgG4/kappa constant regions; also called chimeric CUSB0124; not shown: human IgG4 constant region, UniProt P01861; human kappa constant region, UniProt P01834) VH: QIQLVQSGPELKKPGETVKISCKASGYIFTNYGVTWVKQTPGKGLKWMTWINTNTGEPTSAEEFKGRFDFSSETSATTAYLQINNLKNEDTATYFCVRIRENAMDYWGQGTSVTVSS VL: DIQMTQSPASQSASLGESVTITCLASQTIGTWLAWYQQKPGKSPQLLIYAATRLAVGVPSRFSGSGSGTKFSFKISRLQAEDFVSYYCQQLYSTPFTFGSGTKLEIK |  |  |  |  | 2.93 | 0.0894 | 5.92 | 0.000912 | 154000 |  |  |  | 
3 | xCUSB0125 (antibody, human IgG4, V domains shown, Chimeric: mouse variable regions joined to human IgG4/kappa constant regions; also called chimeric CUSB0125; not shown: human IgG4 constant region, UniProt P01861; human kappa constant region, UniProt P01834) VH: DVQLRESGPGLVKPSQSLSLTCTVTGYSITSDYAWNWIRQFPGNKLEWMGYIYYSGTTSYNPSLKSRISITRDTSKNQFFLQLNSVTTEDTATYYCARNYGSAFYYFDYWGQGTTLTVSS VL: DILMTQSPSSMSVSLGDTVTITCHASQGISSNIGWLQQKPGKSFKGLIYRGTNLEDGVPSRFSGSGSGADYSLTISSLESEDFADYYCVQYAQFPPTFGGGTKLEIK |  |  |  |  | 0.302 | 0.0201 | 0.18 | 0.000512 | 2.84e+06 | ~0.3 |  |  | 
4 | mCUSB0136 (antibody, V domains shown, Mouse monoclonal antibody purified from hybridoma) VH: QVQLKESGPGLVAPSQSLSITCTVSGFSLTTYDIIWIRQSPGKGLEWLGVIWTGGDTNYNSAFMSRLSISKDNSKSQIFLKMNSLQTDDTAIYYCVRDWAYWGQGTLVTVST VL: NIVLTQSPASLAVSLGQRATISCRASESVDNYGNSFIQWYQQKPGQPPKLLIYFASNLQSGVPARFSGSGSRTDFTLTIDPVEADDAATYYCHQNNEDPFTFGSGTKLEIK |  |  |  |  |  |  |  |  |  |  |  | 1.21 | 0.0342
5 | xCUSB0103 (antibody, human IgG4, V domains shown, Chimeric: mouse variable regions joined to human IgG4/kappa constant regions; also called chimeric CUSB0103; not shown: human IgG4 constant region, UniProt P01861; human kappa constant region, UniProt P01834) VH: DVKLVESGGGLVKPGGSLKLSCAASGFTFSSYTMSWVRQTPEKRLEWVAAISGGGSYTYYADSVKGRFTISRDNAKNTLSLQMSSLKSEDTAMYFCTSPYDFAMDYWGQGTSVTVSS VL: DIQMTQTTSSLSASLGDRVTISCRASQDITNYLNWYQQKPDGSVKLLIYYTSRLHSGVPSRFRGSGSGTDYSLTISNLEQEDIATYFCQQGNTLPWTFGGGTKLEIK |  |  |  |  | 0.593 | 0.0284 | 0.448 | 0.000292 | 653000 |  |  |  | 
6 | xCUSB0123 (antibody, human IgG4, V domains shown, Chimeric: mouse variable regions joined to human IgG4/kappa constant regions; also called chimeric CUSB0123; not shown: human IgG4 constant region, UniProt P01861; human kappa constant region, UniProt P01834) VH: QVQLQQSGPELVRPGESVKISCKGSGYTFTDYVMHWVKQSHAKSLEWIGVITIYNDITNYNQKFKGKATMTIDKSSSTAYMELARLTSEDSAIYYCAREGYDSYWYFDVWGAGTTVTVSS VL: DVLMTQTPLSLPVSLGDQASISCRSSQTIVHSNGNTYLEWYLQKPGQSPKLLIYKVSNRFSGVPDRFSGSGSGTDFTLKISRVEAEDLGVYYCFQGSHLPYTFGGGTKLEIK |  |  |  |  | 0.957 | 0.0353 | 1.23 | 0.000366 | 298000 |  |  |  | 

The next lines start with the values.

Row | PD-1/PD-L1 blockade bioassay, IC50 [1] [µg/mL] | Kd [2] [nM] | koff [2] [s⁻¹] | kon [2] [M⁻¹ s⁻¹] | PD-1/PD-L1 blockade bioassay, IC50 [3] [µg/mL] | EC50 [4] [µg/mL] | Kd [5] [nM] | koff [5] [s⁻¹] | kon [5] [M⁻¹ s⁻¹] | IC50 (read off the curve) [6] [µg/mL] | IC50 (read off the curve) [7] [µg/mL] | PD-1/PD-L1 blockade bioassay, IC50 [8] [µg/mL] | EC50 [9] [µg/mL] | Binder
7 | 2.41 | 3.28 | 0.00944 | 2.88e+06 |  |  |  |  |  |  |  |  |  | zCUSB0125.3 (antibody, human IgG4, V domains shown, domain: human IgG4 constant region; Humanized; human IgG4 S228P and kappa constant regions; also called CUSB0125-BMVH.1 with CUSB0125-BMVL.3; not shown: human kappa constant region) VH: QVQLQESGPGLVKPSQTLSLTCTVSGYSITSDYAWNWIRQPPGKGLEWIGYIYYSGTTSYNPSLKSRVTISVDTSKNQFSLKLSSVTAADTAVYYCARNYGSAFYYFDYWGQGTTLTVSS VL: DIQMTQSPSSVSASVGDRVTITCHASQGISSNIGWLQQKPGKAFKGLIYRGTNLEDGVPSRFSGSGSGTDYTLTISSLQPEDFATYYCVQYAQFPPTFGGGTKLEIK
8 | 0.297 | 0.227 | 0.000721 | 3.18e+06 |  |  |  |  |  |  |  |  |  | zCUSB0125.6 (antibody, human IgG4, V domains shown, domain: human IgG4 constant region; Humanized; human IgG4 S228P and kappa constant regions; also called CUSB0125-BMVH.2 with CUSB0125-BMVL.3; not shown: human kappa constant region) VH: QVQLQESGPGLVKPSQTLSLTCTVSGYSITSDYAWNWIRQPPGKGLEWMGYIYYSGTTSYNPSLKSRITISRDTSKNQFSLKLSSVTAADTATYYCARNYGSAFYYFDYWGQGTTLTVSS VL: DIQMTQSPSSVSASVGDRVTITCHASQGISSNIGWLQQKPGKAFKGLIYRGTNLEDGVPSRFSGSGSGTDYTLTISSLQPEDFATYYCVQYAQFPPTFGGGTKLEIK
9 | 0.312 | 0.182 | 0.000579 | 3.18e+06 |  |  |  |  |  |  |  |  |  | zCUSB0125.12 (antibody, human IgG4, V domains shown, domain: human IgG4 constant region; Humanized; human IgG4 S228P and kappa constant regions; also called CUSB0125-BMVH.4 with CUSB0125-BMVL.3; not shown: human kappa constant region) VH: QVQLQESGPGLVKPSQTLSLTCTVSGYSITSDYAWNWIRQFPGKKLEWMGYIYYSGTTSYNPSLKSRISITRDTSKNQFSLKLSSVTAADTAVYYCARNYGSAFYYFDYWGQGTTLTVSS VL: DIQMTQSPSSVSASVGDRVTITCHASQGISSNIGWLQQKPGKAFKGLIYRGTNLEDGVPSRFSGSGSGTDYTLTISSLQPEDFATYYCVQYAQFPPTFGGGTKLEIK
10 |  |  |  |  | 0.43 | 0.0437 | 0.577 | 0.000285 | 493000 |  |  |  |  | xCUSB0126 (antibody, human IgG4, V domains shown, Chimeric: mouse variable regions joined to human IgG4/kappa constant regions; also called chimeric CUSB0126; not shown: human IgG4 constant region, UniProt P01861; human kappa constant region, UniProt P01834) VH: VKLVESGGDLVKPGGSLKLSCAASGFPFSSYLMSWVRQTPEKRLEWVAAISGGGRDTYYPDNVKGRFTISRDNARNILYLQMSSLRSEDTAVYYCATRGSYAMDYWGQGTSVTVSS VL: DIQMTQSPASQSASLGESVTITCLASQTIGTWLAWYQQKPGKSPQILIYAATNLADGVPSRFSGSGSGTKFSFKISSLQAEDFVSYYCQQLYSIPWTFGGGTKLEIK
11 |  |  |  |  | 0.455 | 0.0347 | 0.621 | 0.000293 | 471000 |  |  |  |  | xCUSB0129 (antibody, human IgG4, V domains shown, Chimeric: mouse variable regions joined to human IgG4/kappa constant regions; also called chimeric CUSB0129; not shown: human IgG4 constant region, UniProt P01861; human kappa constant region, UniProt P01834) VH: VKLVESGGGLVKPGGSLKLSCAASGFPFSSYLMSWVRQTPEKRLEWVAAISGGGRDTYYPDSVKGRFTISRDNARNILYLQMSSLRSEDTALYYCARRGSYAMDYWGQGTSVTVSS VL: DIQMTQSPASQSASLGESVTITCLASQTIGTWLAWYQQKPGKSPQILIYDATNLADGVPSRFSGSGSGTKFSFKISSLQAEDFVSYYCQQLYSIPWTFGGGTKLEIK
12 |  |  |  |  | 0.372 | 0.0154 | 0.083 | 0.000193 | 2.3e+06 |  | ~0.4 |  |  | xCUSB0136 (antibody, human IgG4, V domains shown, Chimeric: mouse variable regions joined to human IgG4/kappa constant regions; also called chimeric CUSB0136; xCUSBO136; not shown: human IgG4 constant region, UniProt P01861; human kappa constant region, UniProt P01834) VH: QVQLKESGPGLVAPSQSLSITCTVSGFSLTTYDIIWIRQSPGKGLEWLGVIWTGGDTNYNSAFMSRLSISKDNSKSQIFLKMNSLQTDDTAIYYCVRDWAYWGQGTLVTVST VL: NIVLTQSPASLAVSLGQRATISCRASESVDNYGNSFIQWYQQKPGQPPKLLIYFASNLQSGVPARFSGSGSRTDFTLTIDPVEADDAATYYCHQNNEDPFTFGSGTKLEIK

— patent US20260098092A1 (CHULALONGKORN UNIVERSITY, published 2026)
